In series [1] the target is T1, KLF4 full-length (UniProt O43474-1 1-479). The note with it: protein: recombinant; tags: N-terminal 6xHis-lipoyl-TEV tag, cleaved; label: 5' Alexa488.
Series [2] addresses T1, KLF4 full-length. The note with it: protein: recombinant; tags: N-terminal 6xHis-lipoyl-TEV tag, cleaved; label: 5' fluorescein.
Series [3] concerns the target T1, KLF4 full-length. As to conditions: protein: recombinant; tags: N-terminal 6xHis-lipoyl-TEV tag, cleaved; label: 5' fluorescein. The source holds these as a separate data set.

Read-outs that look alike come from different tables or passages of the source.

T1 sequence (O43474 other isoform, or with tags, fused parts or gaps): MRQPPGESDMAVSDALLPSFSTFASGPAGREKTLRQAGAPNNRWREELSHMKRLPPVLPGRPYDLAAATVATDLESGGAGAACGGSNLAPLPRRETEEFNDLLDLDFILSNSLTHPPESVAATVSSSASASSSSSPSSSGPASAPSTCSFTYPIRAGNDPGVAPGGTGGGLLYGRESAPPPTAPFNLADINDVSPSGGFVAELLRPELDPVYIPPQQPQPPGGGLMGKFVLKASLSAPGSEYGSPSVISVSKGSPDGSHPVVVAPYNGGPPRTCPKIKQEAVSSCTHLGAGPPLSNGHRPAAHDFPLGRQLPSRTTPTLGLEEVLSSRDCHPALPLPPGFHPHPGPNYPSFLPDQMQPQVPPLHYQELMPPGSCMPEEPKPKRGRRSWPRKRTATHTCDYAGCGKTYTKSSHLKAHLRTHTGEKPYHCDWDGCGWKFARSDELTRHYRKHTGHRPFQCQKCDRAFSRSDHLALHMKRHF

B1: *P (dsDNA)
DNA 1: GGACATGTCCGGACATGTCC
DNA 2: GGACATGTCCGGACATGTCC
Turning to B1, the binding result in series [1] is reported as “no binding”.

B2: *K-1 (dsDNA)
DNA 1: AGGGTGTGGCCCGC
DNA 2: GCGGGCCACACCCT
Take B2: the binding result in series [2] is “binds”.

B3: *K-2 (dsDNA)
DNA 1: GGGCCACCCCGCC
DNA 2: GGCGGGGTGGCCC
Take B3: the binding signal in series [3] came to 100 fold weaker than *K-1.

For the origin of these results see publication PMC3484126.
